Assay [1] concerns the target T1, human flt3 on BAF/hflt3 cells (BAF-BO3 cells transfected with human flt3 cDNA) (human, UniProt P36888 27-993).
T1 construct: whole, on cells; also called flt3 Receptor
T1 sequence (looked up): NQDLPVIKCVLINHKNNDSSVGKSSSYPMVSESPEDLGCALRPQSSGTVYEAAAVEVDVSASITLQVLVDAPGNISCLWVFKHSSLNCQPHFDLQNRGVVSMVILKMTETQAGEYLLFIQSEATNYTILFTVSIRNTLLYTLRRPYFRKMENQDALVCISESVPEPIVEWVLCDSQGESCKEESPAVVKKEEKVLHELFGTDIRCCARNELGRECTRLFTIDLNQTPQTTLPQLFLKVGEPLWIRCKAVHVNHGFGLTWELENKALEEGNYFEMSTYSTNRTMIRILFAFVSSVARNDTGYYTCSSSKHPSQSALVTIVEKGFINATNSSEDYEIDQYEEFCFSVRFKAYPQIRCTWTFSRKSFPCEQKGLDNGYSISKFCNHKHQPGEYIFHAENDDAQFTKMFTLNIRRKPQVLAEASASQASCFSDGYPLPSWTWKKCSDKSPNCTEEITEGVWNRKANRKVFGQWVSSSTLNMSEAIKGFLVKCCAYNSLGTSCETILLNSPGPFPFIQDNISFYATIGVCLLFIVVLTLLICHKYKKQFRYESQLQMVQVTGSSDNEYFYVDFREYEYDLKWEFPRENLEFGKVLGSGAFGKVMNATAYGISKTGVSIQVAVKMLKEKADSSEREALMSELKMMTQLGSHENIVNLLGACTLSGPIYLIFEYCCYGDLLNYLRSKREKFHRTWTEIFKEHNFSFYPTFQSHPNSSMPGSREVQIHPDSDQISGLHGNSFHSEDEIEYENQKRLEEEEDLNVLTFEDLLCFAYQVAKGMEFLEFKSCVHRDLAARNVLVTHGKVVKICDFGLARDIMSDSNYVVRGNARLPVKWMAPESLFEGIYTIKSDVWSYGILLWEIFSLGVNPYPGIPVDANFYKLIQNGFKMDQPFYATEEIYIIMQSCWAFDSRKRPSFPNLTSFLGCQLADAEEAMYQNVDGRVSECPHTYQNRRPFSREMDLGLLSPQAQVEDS
The experiment in a line: direct binding of serial dilutions of 125I-flt3-L to BAF-BO3 cells transfected with human flt3, 37 C, phthalate oil separation (n=7). How it is done:
(§1) Binding assays were performed using a phthalate oil separation method as described previously for murine ¹²⁵I-GM-CSF (Park et al., J. Biol. Chem. 261:4177-4183 (1986)). Briefly, BAF-BO3 cells transfected with human flt3 cDNA (0.5-1×10⁶) were incubated with serial dilutions of ¹²⁵I-flt3-L in binding medium (RPMI 1640, 2.5% bovine serum albumin, 0.2% NaN3, 20 mM Hepes, pH 7.2) in 96 well microtiter plates maintained on a mini-orbital shaker (Bellco) at 37° C. for 90 minutes. Inhibition binding assays were carried out by holding the radiolabeled flt3-L concentration constant at 0.3 nM, while the concentration of unlabeled competitor proteins ranged from 150 nM to 0.001 nM. The ratio of Kdi of mutant to wild type flt3-L, determined in at least duplicate, in a given assay was averaged over at least three independent assays and the standard error of the mean (SEM) reported. […]
(§2) The ordinate is the Log¹⁰ of the value relative to wild type flt3-L, and the abscissa is the flt3-L mutant designation. […] The ratio of Kₐᵢ mutant to wild type flt3-L, determined in at least duplicate, in a given assay is averaged over at least three independent assays and the standard error of the mean (SEM) is reported.

Assay [2] addresses T1, human flt3 on BAF/hflt3 cells (BAF-BO3 …). The experiment in a line: cell-based or functional assay.
Assay [3] shares this target. The experiment in a line: Kdi: inhibition by unlabelled flt3-L of 0.3 nM 125I-flt3-L binding to BAF-BO3 cells transfected with human flt3 (n=7). How it is done: as §1, §2
Assay [4] has the same target. The experiment in a line: inhibition of 125I-flt3-L binding to BAF/hflt3 cells, purified protein. As to the method: Binding assays were performed using a phthalate oil separation method as described previously for murine ¹²⁵I-GM-CSF (Park et al., J. Biol. Chem. 261:4177-4183 (1986)). Briefly, BAF-BO3 cells transfected with human flt3 cDNA (0.5-1×10⁶) were incubated with serial dilutions of ¹²⁵I-flt3-L in binding medium (RPMI 1640, 2.5% bovine serum albumin, 0.2% NaN3, 20 mM Hepes, pH 7.2) in 96 well microtiter plates maintained on a mini-orbital shaker (Bellco) at 37° C. for 90 minutes. Inhibition binding assays were carried out by holding the radiolabeled flt3-L concentration constant at 0.3 nM, while the concentration of unlabeled competitor proteins ranged from 150 nM to 0.001 nM. The ratio of Kdi of mutant to wild type flt3-L, determined in at least duplicate, in a given assay was averaged over at least three independent assays and the standard error of the mean (SEM) reported. […] For this assay, cells expressing human flt3 (BAF/hflt3 cells) were constructed from BAF/B03 cells, using a procedure previously described for producing BAF/B03 cells expressing the murine flt3 (Lyman et al., Cell 75:1157-1167 (1993)). Expression of human flt3 by BAF/hflt3 cells was confirmed by examining the capacity of the cells to proliferate in response to soluble flt3-L, and by flow cytometric analysis using biotinylated flt3-L.
^aThe specific activity of purified mutant or wild type protein was determined by taking the ratio of proliferation activity in BAF/hflt3 cells (units/ml) to concentration of flt3-L protein as determined by amino acid composition (ng/ml). The ratio of specific activity of mutant to wild type flt3-L is averaged over three independent assays, and the standard error of the mean (SEM) is reported. ^bThe Kdifor wild type protein is 61 ± 19 pM (n = 2). The ratio of Kₐᵢ of mutant to wild type flt3-L is averaged over two independent assays and the standard deviation is reported.

The target is the same in assay [5]. The experiment in a line: Kdi: inhibition of 125I-flt3-L binding to BAF/hflt3 cells, the assays of Table 3.

B1: wild type flt3-L (yeast-derived recombinant human flt3 Ligand) (ligand)
chain: LSGTQDCSFQHSPISSDFAVKIRELSDYLLQDYPVTVASNLQDEELCGGLWRLVLAQRWMERLKTVAGSKMQGLLERVNTEIHFVTKCAFQPPPSCLRFVQTNISRLLQETSEQLVALKPWITRQNFARCLELQCQPDSSTLPPPWSPRPLEATAP
notes: Secreted from yeast (alpha-factor leader, final plasmid PIXY797); Leu-Ser-Gly stands before Thr1 of the mature protein (80% of chains; 20% begin at Ser); Noncovalent dimer (dimer peak collected); also called WT; 125I-flt3-L (radiolabelled form)
Broadly, the Kd is a measure of binding affinity in units of concentration. One may read the Ki as the equilibrium dissociation constant of an inhibitor or competing ligand from its target. Lower therefore signals higher affinity. Regarding B1, binding in assay [1] was put at a Kd of 0.13 nM. For the same molecule, the “Sp.Ac. MUT / Sp.Ac. Wt (BAF/hflt3 cell proliferation units/ml per ng/ml purified protein)” value in assay [2] was 1 ratio to wild type. Also, the Ki in assay [3] was determined as 0.09 nM; in assay [5], 0.061 nM. The “Kai MUT / Kai Wt” value in assay [4] is 1 ratio to wild type.

(Values after patent US20020111475A1 (IMMUNEX, published 2002).)
